A short description of the data set: soluble on expression in E. coli; label from the status in PepcDB or PDB records.
In the case of “MGSDKIHHHHHHMQKHNIKRDCCKLLYLLICNSLFYRRSIMGVKVVKDLVYSYIEIDESVQKLIDTASFQRLKRIKQLSSSYIFPSTNHTRYEHSIGVMHLACNFFEVLEKDFRKYGLTEDRISYLRLHIKLAGLLHDVGHPPFSHLGEKFLDKNEIIACIKNEYSHLVDVDKTFYNNGRLIGKEHELLSCYCILRKFYKILKEEIDKNIDVAFICRCIIGNTYPDSENWDKNICVRIISSDSIDVDKLDYLTRDNHMTGEIAPKMDIKRLLACLTITENKELKYVAKAIPAVQTVVDSRDILYLWVYHHHISIYTDYIIGRILKRCMTLYDEHRGQALEEMNREEYFSPKAITDYLITDDDIYSHLRKIYVLSLEGKVDDFNTIIIKQIFERDFLKPLWKTIYEYKDFEKNLVDKKIIKSYDELEDILKNEKNIEDITNTLLKKLNLKEGEVFIITKYNKFYNSNKEAPISLLLNGEERKLSDLLPQKEFGKFHTMAFFVFVPKKYKKEAKEIVIEELQKISQT”, the “soluble on expression in E. coli” value was “not soluble”.

For the sequence “GAMDPEFMSTPLPAIVPAARKATAAVIFLHGLGDTGHGWAEAFAGIRSSHIKYICPHAPVRPVTLNMNVAMPSWFDIIGLSPDSQEDESGIKQAAENIKALIDQEVKNGIPSNRIILGGFSQGGALSLYTALTTQQKLAGVTALSCWLPLRASFPQGPIGGANRDISILQCHGDCDPLVPLMFGSLTVEKLKTLVNPANVTFKTYEGMMHSSCQQEMMDVKQFIDKLLPPID”, the “soluble on expression in E. coli” value is on record as “soluble”.

In the case of “MGSDKIHHHHHHMKLSCSQSELNNALQLVSRAVSNRPTHPVLANVLLAADEVTGKLRLTGFDLSLGIQTSISASIDSSGAITLPAKLFGEIVSKLSNDSPLVLTSDETSQQVELTSKSGTYQVRGMLSDDFPELPLVENGTSFKLNPLLLSNAIKSTLFASSTDDAKQLLTGVNLTFDGYGIESAATDGHRLAVLNLNNILSDSKEIDSSIKFEKFSITLPSKSLREVEKFLSTCDISHPINFFIDKGQVVFISVEDIITIRALEGSYPNYSQLLPDTFENELEFDRKEFISSLERIAVLADQHNNVIKVTTDGSANLIKISTDAQDIGTGYESLPVSYKGDSFQIAFNVRYLLDGLKVIDSNLIKLSCNSPTTPAIFSPINSDVNFTYLVMPIQIRN”, the “soluble on expression in E. coli” value was “not soluble”.

For the sequence “MGSDKIHHHHHHMKRRILFIHNNLGGGGAEGALIEVLNHLDYNRYDVTLFLLYRTGDFIDRVPPQVHFKHEQFGRFFPGYKGKIAIRCGLRNMLLRCCAKRVFANEKYDTIVSFMESAPAKFHSYILDKGKRNITWVHCDLLNNHYTTGFFLTLKQEQKFYSRMDDVIFVSEDAKKNFSKLFGIDKGRVIYNIIDQRAICKRSKAVSSMPRHRTFTFVNVGSLKEIKRQDRIIETAALLKARGYDADFWLIGKGIWEERLKAQATALNVSDSVHFLGFQSNPYPYVAAADVFLMTSDSEGFPLVVAEAMCLGKAVISTRITGPMEMLGNGRYGILTGFSPEEIANSAISLIEDPKLLSSYQHLAYERSISYFDVNGVMTQIHDVIGN”, the “soluble on expression in E. coli” value was “not soluble”.

As for “MDLSEDQIRGLPHHELLGHFLQMREEFNEFQTSSAEIEKMMDSELDDLKTQLKKAETRVQQMTTEQIRNKDRQDDSRVQFAQVEEQLRRENSHLHEQCESQRERIRKLEQRNDVLETSERNKEYLASDLGSKLDHAIEKIAMLESELYERQVAAEEMHRLREEQLRTTERPRLIVEPLRNDPEILPDEPSPGPSKEEFKMSSEDVFMEDVQHHEDVRMEETIAKIDEVRIDDNKNIQEKSQRVSTGTGAGACINRIVKDLMTKVERLDSILSTIRVSNNSSNNNSSHLTTTRA”, the “soluble on expression in E. coli” value is on record as “not soluble”.

On to “MMAKDFYSAIEDRRSIYAISKEQVVSDEKIQEVIYHAVKHTPSAFNSQSARVVVLLGEQHDKLWDITKETLRKIVPENNFAPTEEKMNAFKSGYGTVLYFEDSEVVESLQANFALYKDNFPTWSQQSSGMLQFAIWTALEIEGFGATLQHYNPLIDEEVRKEWDVPANWKLIAQMPFGKPVVQAGEKEFQPLENRVKIYK”, for which the “soluble on expression in E. coli” value was “not soluble”.

Consider “MGHHHHHHSHMSHIFDASVLAPHIPSNLPDNFKVRPLAKDDFSKGYVDLLSQLTSVGNLDQEAFEKRFEAMRTSVPNYHIVVIEDSNSQKVVASASLVVEMKFIHGAGSRGRVEDVVVDTEMRRQKLGAVLLKTLVSLGKSLGVYKISLECVPELLPFYSQFGFQDDCNFMTQRF”, for which the “soluble on expression in E. coli” value was “not soluble”.

On to “MDNEKKSMYEPGVILGGCTLRRQLNDSGEAMVFLAESGNEEKKEVIIKFFKCGYGEDEIKYLDVLTNHEQRRNIVEMLKSFETPEIRLGMVFKRYETDLFGILGDRQRLQPSTIQKYMKGLMEGLQFIHRMDYIHRDIKPENLLIDGETICIADFGETVLSTSDKVVKPGTLPYLTIEHILGYKENTKSMDIWAAACVLGAMFQGSHLFSQNSNLQTIHAIRLLLGNHTKETWPEMDKLPLMQSIELPPVGEKTFSKIENITKEAADLMEQMMKYDPTKRLMASQVLNHEYFKKEASAQAN”, for which the “soluble on expression in E. coli” value was “not soluble”.

Take “QLNQILRAANLHSFAVANLRQVEHATRPTKTMSAGLTIINVPAFYSSQHQLQKQYWTQLQHLIKQTKPTTDLILNFAANTGGSSAPMIAGLAAIIPDGTIYTGITNHHRNRPRMMYHGRITGGLGQDDVNFSQPTAAHFRHIYAIIGNQTASAAEVTIMALKRNPHVTLVGRSSAGYTSLNGGVFLNTAVAVMTIGTLKATVKIHGQQYFNNQPLKPDIPTLYQPLAPLQLGQSPHLDADFLSELRTIMKHYH”: the “soluble on expression in E. coli” value is listed as “not soluble”.

For the sequence “MLVIKGVKAYTMSNIGVVEKANIIVKDGKIVDVTQELPPLEGKTVVDGEGLIALPGLIDPHTHLGVYSLEWEYGDHGTEKSDPITPHFKVIDGLDIFDPGFKDAIAGGVTTVSVEPGAPLSWASYEKTTIMPGQSAILKTNGRIIKEEAGIKIAVGGHVRKFLEELKLTPTTRMGIFAMIRMILHKAKEYLEKEDKQYDPKLEALATLLKNETVARVHAHLSRDMLSIIRLLKEFDIKNIIIEHGTEAYKISDVLKENGIPVILGPVIFPRRGVELRELSSKLAFQLYNSGMMFALTTDHPALPIQYLTLVAAACVGEGLPYEEALKSITINPAKILGIDRFVGSLEPGKDADIVLFDGDPLNPESKVMYTIIDGEVVYER”, the “soluble on expression in E. coli” value was “soluble”.

Turning to “MGSDKIHHHHHHAEISDKVIRIGVLNDQSGVYADIAGTGSVEAARMAAEEFGGEIDGAKIEFVSADHQNKADIAANVANQWIDTGGVDAIVDIPNSSAMLAVQEIGRTKKRIVIASGGGSTDFTGPKCSPYGFHWTYDTYSLAKGTAESLVKDGGTTWYNIVVDYAFGHSLDTDTSRFITQAGGQVVGRVLHPLGTSDFSSYLLQAQGSGAKVIGVLSAGADTVNAIKQAAEFGITQGGQILAGLLIFDQTVHSLGLETAQGLRLTTGFYWDRTDATRAWSAEFLKRSTKNIPSMAHAGVYSGVRHYLAAIKAAGTDNADAVAAKMRETPVNDMFAENGTVRADGRMVHDMYLMEVKKPADSTSEWDLMRLVHVIPGEEAYRPLAEGGCPLVQ”, the “soluble on expression in E. coli” value is reported as “not soluble”.

“SAETEALSKLREDFRMQNKSVFILGASGETGRVLLKEILEQGLFSKVTLIGRRKLTFDEEAYKNVNQEVVDFEKLDDYASAFQGHDVGFCCLGTTRGKAGAEGFVRVDRDYVLKSAELAKAGGCKHFNLLSSKGADKSSNFLYLQVKGEVEAKVEELKFDRYSVFRPGVLLCDRQESRPGEWLVRKFFGSLPDSWARGHSVPVVTVVRAMLNNVVRPRDKQMELLENKAIHDLGKAHGSLKP”: the “soluble on expression in E. coli” value is given as “soluble”.

With “MSDQIADARLVPLGAILTRMSTVVDMPETRGHLISAITTASDPGEILYLSSRADFSEGGSIRGGVPIIAPWFAKNLGHDELQHGWARRVEWETIPTNGGIDARTSHDDWDLRLGTQVLPHGFAMMLKARNASPLRRDFQSAFHPYFRVADVRTTTVTVGDQEFRFDGTAVDQAVPLPEWTPLVIKDSQRTITVTYQGADHAVVWNPGSELAAQMTDVGEGEWTEFVCVEPALLGDHAQGISVPPWDWVEIGMTVKVTPAQ”, the “soluble on expression in E. coli” value was “not soluble”.

The values are drawn from the DeepSol protein solubility set.
